Measurements as given in patent US20230190925A1 (CENTRE NATIONAL DE LA RECHERCHE SCIENTIFIQUE CNRS, published 2023).

B1: decoration protein pb10 of phage T5 (other)
chain: MGIDYSGLRTIFGEKLPESHIFFATVAAHKYVPSYAFLRRELGLSSAHTNRKVWKKFVEAYGKAIPPAPPAPPLTLSKDLTASMSVEEGAALTLSVTATGGTGPYTYAWTKDGSPIPDASGATYTKPTAAAEDAGSYKVTVTDSKQVSKDSTTCAVTVNPTVPGGLE
notes: Monomeric; also called native protein pb10; pb10 H6
B2: pb10-OVAH6 (whole protein pb10 fused with ovalbumin, His-tagged) (other)
chain: MGIDYSGLRTIFGEKLPESHIFFATVAAHKYVPSYAFLRRELGLSSAHTNRKVWKKFVEAYGKAIPPAPPAPPLTLSKDLTASMSVEEGAALTLSVTATGGTGPYTYAWTKDGSPIPDASGATYTKPTAAAEDAGSYKVTVTDSKQVSKDSTTCAVTVNPTVPGGMGSIGAASMEFCFDVFKELKVHHANENIFYCPIAIMSALAMVYLGAKDSTRTQINKVVRFDKLPGFGDSIEAQCGTSVNVHSSLRDILNQITKPNDVYSFSLASRLYAEERYPILPEYLQCVKELYRGGLEPINFQTAADQARELINSWVESQTNGIIRNVLQPSSVDSQTAMVLVNAIVFKGLWEKAFKDEDTQAMPFRVTEQESKPVQMMYQIGLFRVASMASEKMKILELPFASGTMSMLVLLPDEVSGLEQLESIINFEKLTEWTSSNVMEERKIKVYLPRMKMEEKYNLTSVLMAMGITDVFSSSANLSGISSAESLKISQAVHAAHAEINEAGREVVGSAEAGVDAASVSEEFRADHPFLFCIKHIATNAVLFFGRCVSP
B3: pb10N-Ter-OVAH6 (N-terminal domain of pb10 fused with ovalbumin, His-tagged) (other)
chain: MGIDYSGLRTIFGEKLPESHIFFATVAAHKYVPSYAFLRRELGLSSAHTNRKVWKKFVEAYGKAIPPAPPAPPMGSIGAASMEFCFDVFKELKVHHANENIFYCPIAIMSALAMVYLGAKDSTRTQINKVVRFDKLPGFGDSIEAQCGTSVNVHSSLRDILNQITKPNDVYSFSLASRLYAEERYPILPEYLQCVKELYRGGLEPINFQTAADQARELINSWVESQTNGIIRNVLQPSSVDSQTAMVLVNAIVFKGLWEKAFKDEDTQAMPFRVTEQESKPVQMMYQIGLFRVASMASEKMKILELPFASGTMSMLVLLPDEVSGLEQLESIINFEKLTEWTSSNVMEERKIKVYLPRMKMEEKYNLTSVLMAMGITDVFSSSANLSGISSAESLKISQAVHAAHAEINEAGREVVGSAEAGVDAASVSEEFRADHPFLFCIKHIATNAVLFFGRCVSP

Experiments:
[1] = biological target: T1, empty phage T5 capsid, undecorated, produced from the mutant phage T5stAmN5-Δdec (UniProt Q6QGD8 160-458; Q6QGD5 11-403); experiment: SPR
T1 chain 1: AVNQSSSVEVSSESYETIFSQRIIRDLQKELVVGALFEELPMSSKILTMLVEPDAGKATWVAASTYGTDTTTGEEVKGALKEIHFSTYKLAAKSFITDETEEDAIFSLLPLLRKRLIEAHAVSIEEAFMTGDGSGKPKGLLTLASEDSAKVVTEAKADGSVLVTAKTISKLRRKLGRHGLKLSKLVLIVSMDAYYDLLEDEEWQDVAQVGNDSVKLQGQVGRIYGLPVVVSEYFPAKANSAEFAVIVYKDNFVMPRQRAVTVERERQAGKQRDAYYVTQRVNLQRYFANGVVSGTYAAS
T1 chain 2: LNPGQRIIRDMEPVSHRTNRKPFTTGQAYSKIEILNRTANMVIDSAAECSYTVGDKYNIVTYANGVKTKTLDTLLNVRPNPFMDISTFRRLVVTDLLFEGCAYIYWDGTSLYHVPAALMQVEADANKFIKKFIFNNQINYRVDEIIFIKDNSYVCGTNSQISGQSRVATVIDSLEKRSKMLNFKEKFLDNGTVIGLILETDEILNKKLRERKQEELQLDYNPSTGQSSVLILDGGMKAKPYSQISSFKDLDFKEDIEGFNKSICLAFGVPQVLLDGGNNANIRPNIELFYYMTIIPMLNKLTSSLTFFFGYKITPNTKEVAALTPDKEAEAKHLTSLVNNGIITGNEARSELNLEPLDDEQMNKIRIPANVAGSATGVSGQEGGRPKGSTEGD

[2] = biological target: T2, empty phage T5 capsid, undecorated, produced from the mutant phage T5stAmN5-Δdec (bacteriophage T5, UniProt Q6QGD8 160-458; Q6QGD5 11-403); experiment: native agarose gel retardation, [protein]/[binding sites on the capsid] = 1+/-0.1
T2 construct: devoid of DNA and of pb10, expanded form; also called empty capsids; pure empty capsids
T2 sequence 1: T1 chain 1
T2 sequence 2: T1 chain 2

[3] = biological target: T3, recombinant phage T5 capsid produced from plasmid pETcapT5Δdec (assembled in the absence of pb10) (bacteriophage T5, UniProt Q6QGD8 160-458; Q6QGD5 11-403); experiment: native agarose gel retardation
T3 construct: also called capsids produced from the plasmid pETcapT5Δdec; pETcapT5Δpb10 capsids
T3 sequence 1: T1 chain 1
T3 sequence 2: T1 chain 2

[4] = biological target: T1, empty phage T5 capsid, undecorated, …; experiment: SPR; 25 °C

Binder	Kd [1]	binding result [2]	binding result [3]	Kd [4]
B1	1.11 pM	binds	binds	2.25 pM
B2	–	–	–	2.34 pM
B3	–	–	–	1.22 pM
